Source: patent US20120329707A1 (INDIANA UNIVERSITY RESEARCH AND TECHNOLOGY, published 2012)
Numbered stars: 1 amine (or outer) side, 2 acyl side, 3 side chain; on linkers, the order of the positions; unused ones are H or OH. Square brackets hold non-standard residues; d marks the D form. Primed or numbered codes have the meaning given here. Side chains are listed from the residue outwards. Ends that are not written are not given here. * marks the point of attachment. 40K‑TE PEG = 40 kDa PEG covalently bound via thioether, formed by reaction of the free thiol of the peptide (Cys side chain) with an iodoacetic-functionalized PEG; 40K‑TE PEG″ = 40 kDa PEG bound to Cys via thioether made from an iodoacetyl-functionalised PEG; γGlu = O=C(O)[C@H](CCC(=O)[*:2])N[*:1]; Palmitoyl = CCCCCCCCCCCCCCCC(=O)*; Orn = NCCC[C@H](N)C(=O)O; Aib = CC(C)(N)C(=O)O

T1: GIP receptor
T1 sequence (P48546 whole entry, species assumed, looked up): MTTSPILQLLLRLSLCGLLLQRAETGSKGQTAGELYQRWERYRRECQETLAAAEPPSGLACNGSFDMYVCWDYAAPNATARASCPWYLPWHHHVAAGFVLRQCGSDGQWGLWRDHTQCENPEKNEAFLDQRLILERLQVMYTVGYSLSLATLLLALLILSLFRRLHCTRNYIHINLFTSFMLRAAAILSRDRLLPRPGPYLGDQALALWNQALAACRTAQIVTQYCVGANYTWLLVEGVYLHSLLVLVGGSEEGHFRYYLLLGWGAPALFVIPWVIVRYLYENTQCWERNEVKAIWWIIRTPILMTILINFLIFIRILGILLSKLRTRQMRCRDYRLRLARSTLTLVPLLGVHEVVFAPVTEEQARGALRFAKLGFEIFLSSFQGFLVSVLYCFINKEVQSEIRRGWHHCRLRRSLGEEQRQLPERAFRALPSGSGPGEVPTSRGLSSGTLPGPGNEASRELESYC

B1: peptide of SEQ ID NO: 36 (peptide)
peptide: H[Aib]QGTFTSDK([γGlu-Palmitoyl])SKYLD[Aib]RAAQDFVQWLKDGRG-NH2
modifications: N-terminus assumed
SMILES: CCCCCCCCCCCCCCCC(=O)N[C@@H](CCC(=O)NCCCC[C@H](NC(=O)[C@H](CC(=O)O)NC(=O)[C@H](CO)NC(=O)[C@@H](NC(=O)[C@H](Cc1ccccc1)NC(=O)[C@@H](NC(=O)CNC(=O)[C@H](CCC(N)=O)NC(=O)C(C)(C)NC(=O)[C@@H](N)Cc1c[nH]cn1)[C@@H](C)O)[C@@H](C)O)C(=O)N[C@@H](CO)C(=O)N[C@@H](CCCCN)C(=O)N[C@@H](Cc1ccc(O)cc1)C(=O)N[C@@H](CC(C)C)C(=O)N[C@@H](CC(=O)O)C(=O)NC(C)(C)C(=O)N[C@@H](CCCNC(=N)N)C(=O)N[C@@H](C)C(=O)N[C@@H](C)C(=O)N[C@@H](CCC(N)=O)C(=O)N[C@@H](CC(=O)O)C(=O)N[C@@H](Cc1ccccc1)C(=O)N[C@H](C(=O)N[C@@H](CCC(N)=O)C(=O)N[C@@H](Cc1c[nH]c2ccccc12)C(=O)N[C@@H](CC(C)C)C(=O)N[C@@H](CCCCN)C(=O)N[C@@H](CC(=O)O)C(=O)NCC(=O)N[C@@H](CCCNC(=N)N)C(=O)NCC(N)=O)C(C)C)C(=O)O
B2: peptide of SEQ ID NO: 33 (peptide)
peptide: H[Aib]QGTFTSDK([γGlu-γGlu-Palmitoyl])SKYLD[Aib]RAAQDFVQWLM[Orn]T[Orn]E-OH
modifications: N-terminus assumed
SMILES: CCCCCCCCCCCCCCCC(=O)N[C@@H](CCC(=O)N[C@@H](CCC(=O)NCCCC[C@H](NC(=O)[C@H](CC(=O)O)NC(=O)[C@H](CO)NC(=O)[C@@H](NC(=O)[C@H](Cc1ccccc1)NC(=O)[C@@H](NC(=O)CNC(=O)[C@H](CCC(N)=O)NC(=O)C(C)(C)NC(=O)[C@@H](N)Cc1c[nH]cn1)[C@@H](C)O)[C@@H](C)O)C(=O)N[C@@H](CO)C(=O)N[C@@H](CCCCN)C(=O)N[C@@H](Cc1ccc(O)cc1)C(=O)N[C@@H](CC(C)C)C(=O)N[C@@H](CC(=O)O)C(=O)NC(C)(C)C(=O)N[C@@H](CCCNC(=N)N)C(=O)N[C@@H](C)C(=O)N[C@@H](C)C(=O)N[C@@H](CCC(N)=O)C(=O)N[C@@H](CC(=O)O)C(=O)N[C@@H](Cc1ccccc1)C(=O)N[C@H](C(=O)N[C@@H](CCC(N)=O)C(=O)N[C@@H](Cc1c[nH]c2ccccc12)C(=O)N[C@@H](CC(C)C)C(=O)N[C@@H](CCSC)C(=O)N[C@@H](CCCN)C(=O)N[C@H](C(=O)N[C@@H](CCCN)C(=O)N[C@@H](CCC(=O)O)C(=O)O)[C@@H](C)O)C(C)C)C(=O)O)C(=O)O

What follows are binders tested against glucagon receptor (assay: cell-based or functional assay).

B1 and B2 are within 1.5-fold of each other in “EC50 (nM) at glucagon receptor” value: 0.028 nM for the first, 0.023 nM for the second.

Compared with H[Aib]QGTFTSDK([γGlu-γGlu-Palmitoyl])SKYLD[Aib]RAAQDFVQWLMKTK[dE]-OH [peptide of SEQ ID NO: 37], H[Aib]QGTFTSDYSKYLDERRA[Aib]EFVC(40K‑TE PEG″)WLLDGGPSSGAPPPS-NH2 [peptide of SEQ ID NO: 35] is 66-fold higher in “EC50 (nM) at glucagon receptor” value: 0.018 nM for the first, 1.18 nM for the second.

H[Aib]QGTFTSDYSKYLDEKRA[Aib]EFVC(40K‑TE PEG)WLMDT-NH2 [peptide of SEQ ID NO: 15] was tested, and the “EC50 (nM) at glucagon receptor” value was 1.1 nM.

These binders were tested against GLP-1 receptor (assay: cell-based or functional assay).

Going from B1 to B2, the “EC50 (nM) at GLP-1 receptor” value rises from 0.003 nM to 0.019 nM (6.3-fold).

Compared with H[Aib]QGTFTSDK([γGlu-γGlu-Palmitoyl])SKYLD[Aib]RAAQDFVQWLMKTK[dE]-OH [peptide of SEQ ID NO: 37], H[Aib]QGTFTSDYSKYLDERRA[Aib]EFVC(40K‑TE PEG″)WLLDGGPSSGAPPPS-NH2 [peptide of SEQ ID NO: 35] is 5.3-fold higher in “EC50 (nM) at GLP-1 receptor” value: 0.016 nM for the first, 0.085 nM for the second.

For H[Aib]QGTFTSDYSKYLDEKRA[Aib]EFVC(40K‑TE PEG)WLMDT-NH2 [peptide of SEQ ID NO: 15], the “EC50 (nM) at GLP-1 receptor” value was 0.071 nM.

The binders below were run against T1, GIP receptor (assay: cell-based or functional assay).

First: B1
Second: B2
The “EC50 (nM) at GIP receptor” value of the first is 8.4-fold lower: 0.47 nM for the first, 3.96 nM for the second.

Going from H[Aib]QGTFTSDK([γGlu-γGlu-Palmitoyl])SKYLD[Aib]RAAQDFVQWLMKTK[dE]-OH [peptide of SEQ ID NO: 37] to H[Aib]QGTFTSDYSKYLDERRA[Aib]EFVC(40K‑TE PEG″)WLLDGGPSSGAPPPS-NH2 [peptide of SEQ ID NO: 35], the “EC50 (nM) at GIP receptor” value rises from 3.3 nM to 16.1 nM (4.9-fold).

For H[Aib]QGTFTSDYSKYLDEKRA[Aib]EFVC(40K‑TE PEG)WLMDT-NH2 [peptide of SEQ ID NO: 15], the “EC50 (nM) at GIP receptor” value was 316 nM.
